For data set [1], the target named is T1, ToTK1ΔC25 (Solanum lycopersicum, UniProt Q71F77).
T1 construct: last 25 C-terminal residues of the 234-residue protein deleted (residues 210-234, borders derived); GST fusion from pGEX-2T, thrombin-cleaved, recombinant
T1 sequence (Q71F77 1-209): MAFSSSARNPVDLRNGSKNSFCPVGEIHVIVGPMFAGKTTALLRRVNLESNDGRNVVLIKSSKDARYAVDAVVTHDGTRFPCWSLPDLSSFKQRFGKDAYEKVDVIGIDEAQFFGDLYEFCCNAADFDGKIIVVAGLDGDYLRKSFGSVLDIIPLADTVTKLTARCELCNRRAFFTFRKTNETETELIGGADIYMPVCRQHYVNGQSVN
The data set can be described thus: nucleoside kinase assay, 3H-labelled nucleoside substrate. Type of data set: biochemical. To be noted: read-out: IC50 dTTP (μM) / dThd. From the text: nucleoside kinase assay, 3H-labelled nucleoside substrate on ToTK1ΔC25

For data set [2], the target named is T2, ToTK1 (Solanum lycopersicum, UniProt Q71F77).
T2 construct: full length, 234 residues; GST fusion from pGEX-2T, thrombin-cleaved, recombinant
T2 sequence (Q71F77 1-234): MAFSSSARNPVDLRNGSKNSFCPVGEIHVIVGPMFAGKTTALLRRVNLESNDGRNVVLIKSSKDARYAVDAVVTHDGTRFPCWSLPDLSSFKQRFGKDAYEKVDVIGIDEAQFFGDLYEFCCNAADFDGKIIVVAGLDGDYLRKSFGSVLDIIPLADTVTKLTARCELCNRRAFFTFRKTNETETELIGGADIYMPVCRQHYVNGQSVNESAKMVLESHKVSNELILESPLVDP
The description is as above. The data set is classed as biochemical. As to conditions: read-out: IC50 dTTP (μM) / dThd. From the text: (§1) nucleoside kinase assay, 3H-labelled nucleoside substrate on ToTK1

The target in data set [3] is T3, ToTK1 (Solanum lycopersicum, UniProt Q71F77, N123S/T78A).
T3 construct: full length, 234 residues; GST fusion from pGEX-2T, thrombin-cleaved, recombinant
T3 sequence (Q71F77 1-234 T78A/N123S): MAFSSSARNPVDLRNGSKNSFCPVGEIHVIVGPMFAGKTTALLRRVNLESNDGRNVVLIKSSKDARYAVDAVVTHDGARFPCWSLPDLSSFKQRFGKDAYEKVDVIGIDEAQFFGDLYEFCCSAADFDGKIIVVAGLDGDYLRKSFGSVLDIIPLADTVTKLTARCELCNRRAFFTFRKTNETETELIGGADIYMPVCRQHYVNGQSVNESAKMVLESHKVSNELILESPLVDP
The description is as above. As to conditions: read-out: IC50 dTTP (μM) / dThd. Type of data set: biochemical.
Excerpt: as §1

In data set [4] the target is T3, ToTK1. The experiment in a line: nucleoside kinase assay, 3H-labelled nucleoside substrate; Ki equals IC50. The data set is classed as biochemical. To be noted: read-out: dThd. From the text: nucleoside kinase assay, 3H-labelled nucleoside substrate; Ki equals IC50 on ToTK1
Data set [5] deals with T1, ToTK1ΔC25. The data set can be described thus: nucleoside kinase assay, 3H-labelled nucleoside, Michaelis-Menten fit. Type of data set: biochemical. As to conditions: labelled compound (3H). An excerpt: (§2) nucleoside kinase assay, 3H-labelled nucleoside, Michaelis-Menten fit on ToTK1ΔC25
For data set [6], the target named is T2, ToTK1. The description is as above. Type of data set: biochemical. As to conditions: labelled compound (3H). An excerpt: (§3) nucleoside kinase assay, 3H-labelled nucleoside, Michaelis-Menten fit on ToTK1
For data set [7], the target named is T4, ToTK1 (Solanum lycopersicum, UniProt Q71F77, T78A/N123S).
T4 construct: full length, 234 residues; GST fusion from pGEX-2T, thrombin-cleaved, recombinant
T4 sequence (Q71F77 1-234 T78A/N123S): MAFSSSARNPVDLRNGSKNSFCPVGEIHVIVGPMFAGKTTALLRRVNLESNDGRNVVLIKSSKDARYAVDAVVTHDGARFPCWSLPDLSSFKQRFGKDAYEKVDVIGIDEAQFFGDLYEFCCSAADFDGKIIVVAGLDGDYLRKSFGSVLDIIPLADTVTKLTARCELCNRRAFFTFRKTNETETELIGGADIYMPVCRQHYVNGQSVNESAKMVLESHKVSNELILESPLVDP
The description is as above. As to conditions: labelled compound (3H). Type of data set: biochemical.
Excerpt: as §3

Substrate in data set [8]: O=c1ccn([C@H]2C[C@H](O)[C@@H](CO)O2)c(=O)[nH]1
The description is as above. Type of data set: biochemical, Solanum lycopersicum. As to conditions: labelled compound (3H).
Excerpt: as §3

Substrate in data set [9]: Cc1cn([C@H]2C[C@H](O)[C@@H](CO)O2)c(=O)[nH]c1=O
The description is as above. As to conditions: labelled compound (3H). The data set is classed as biochemical, Solanum lycopersicum.
Excerpt: as §3

Substrate in data set [10]: O=c1ccn([C@H]2C[C@H](O)[C@@H](CO)O2)c(=O)[nH]1
Described as above. Type of data set: biochemical, Solanum lycopersicum. As to conditions: labelled compound (3H).
Excerpt: as §2
The source holds these as a separate data set.

With `Cc1cn([C@H]2C[C@H](O)[C@@H](COP(=O)(O)OP(=O)(O)OP(=O)(O)O)O2)c(=O)[nH]c1=O` [dTTP], the IC50 worked out at 65.2 ± 6 µM on ToTK1ΔC25 [1], 49.1 ± 1.7 µM at ToTK1 [2] and 55.6 ± 5.2 µM at ToTK1 [3]. On ToTK1 [4], the Ki was found to be 55.6 µM.
For orientation: Km means the substrate concentration at which the rate is half of its maximum. In the case of `Cc1cn([C@H]2C[C@H](N=[N+]=[N-])[C@@H](CO)O2)c(=O)[nH]c1=O` [AZT, 3-azido-2,3-dideoxythymidine], the Km turned out to be 2 ± 0.06 µM at ToTK1ΔC25 [5], 1.2 ± 0.04 µM on ToTK1 [6] and 1.1 ± 0.1 µM at ToTK1 [7].

B1: ToTK1 (Solanum lycopersicum; N123S/T78A) (protein)
chain: MAFSSSARNPVDLRNGSKNSFCPVGEIHVIVGPMFAGKTTALLRRVNLESNDGRNVVLIKSSKDARYAVDAVVTHDGARFPCWSLPDLSSFKQRFGKDAYEKVDVIGIDEAQFFGDLYEFCCSAADFDGKIIVVAGLDGDYLRKSFGSVLDIIPLADTVTKLTARCELCNRRAFFTFRKTNETETELIGGADIYMPVCRQHYVNGQSVNESAKMVLESHKVSNELILESPLVDP
notes: full length, 234 residues; GST fusion from pGEX-2T, thrombin-cleaved, recombinant
The Vmax is the rate approached at saturating substrate. Broadly, the kcat is the maximal rate divided by the concentration of active sites. In general, kcat/Km refers to the turnover number divided by the Michaelis constant. For the molecule B1, in [8], the Km amounted to 15 ± 3.3 µM, the Vmax was 1.9 µmol/min/mg, the catalytic constant (kcat) amounted to 0.82 s⁻¹ and the catalytic efficiency (kcat/Km) turned out to be 54700 M⁻¹ s⁻¹. In addition, in [9], the Km was 1.3 ± 0.36 µM, the maximal velocity (Vmax) worked out at 1.6 µmol/min/mg, the kcat is 0.69 s⁻¹ and the kcat/Km was 531000 M⁻¹ s⁻¹.

B2: ToTK1 (Solanum lycopersicum) (protein)
chain: MAFSSSARNPVDLRNGSKNSFCPVGEIHVIVGPMFAGKTTALLRRVNLESNDGRNVVLIKSSKDARYAVDAVVTHDGTRFPCWSLPDLSSFKQRFGKDAYEKVDVIGIDEAQFFGDLYEFCCNAADFDGKIIVVAGLDGDYLRKSFGSVLDIIPLADTVTKLTARCELCNRRAFFTFRKTNETETELIGGADIYMPVCRQHYVNGQSVNESAKMVLESHKVSNELILESPLVDP
notes: as for B1
Regarding B2, in data set [8], the Km worked out at 17 ± 0.5 µM, the Vmax came out at 3.4 µmol/min/mg, the kcat was 1.47 s⁻¹ and the kcat/Km stood at 86500 M⁻¹ s⁻¹.

B3: ToTK1ΔC25 (Solanum lycopersicum) (protein)
chain: MAFSSSARNPVDLRNGSKNSFCPVGEIHVIVGPMFAGKTTALLRRVNLESNDGRNVVLIKSSKDARYAVDAVVTHDGTRFPCWSLPDLSSFKQRFGKDAYEKVDVIGIDEAQFFGDLYEFCCNAADFDGKIIVVAGLDGDYLRKSFGSVLDIIPLADTVTKLTARCELCNRRAFFTFRKTNETETELIGGADIYMPVCRQHYVNGQSVN
notes: last 25 C-terminal residues of the 234-residue protein deleted (residues 210-234, borders derived); GST fusion from pGEX-2T, thrombin-cleaved, recombinant
As to B3, in data set [10], the Km was found to be 27 ± 3.3 µM, the maximal velocity (Vmax) worked out at 4 µmol/min/mg, the kcat turned out to be 1.54 s⁻¹ and the kcat/Km stood at 57000 M⁻¹ s⁻¹.

Source of the values: PMC4491694, “New Variants of Tomato Thymidine Kinase 1 Selected for Increased Sensitivity of E. coli KY895 towards Azidothymidine” (Cancers, 2015).
